Results from US20230348573A1 (KEIO UNIVERSITY, published 2023).

How the values were obtained:
[1] = target: spike protein of SARS-CoV-2 (Wuhan strain) on pseudovirus (SARS-CoV-2 (Wuhan strain), UniProt P0DTC2 14-1254); assay: cell-based or functional assay
[2] = target: T1, full-length spike protein of SARS-CoV-2 (Wuhan strain) (SARS-CoV-2 (Wuhan strain), UniProt P0DTC2 14-1273); assay: ACE2 competition, 293T cells, antibody 4 µg/mL
T1 construct: whole, on cells; Expressed in 293T cells

[3] = target: T1, full-length spike protein of SARS-CoV-2 …; assay: ACE2 competition, spike on 293T cells, antibody 4 µg/mL
[4] = target: T2, RBD derived from SARS-CoV-2 (Wuhan strain) (SARS-CoV-2 (Wuhan strain), UniProt P0DTC2 319-541); assay: RBD beads, antibody 4 µg/mL, then labelled ACE2, flow cytometry
T2 construct: domain: RBD

[5] = target: T2, RBD derived from SARS-CoV-2 (Wuhan …); assay: RBD beads, antibody 0.25 µg/mL, then labelled ACE2, flow cytometry
[6] = target: T2, RBD derived from SARS-CoV-2 (Wuhan …); assay: BLI (Octet), RBD of the Wuhan strain
[7] = target: T2, RBD derived from SARS-CoV-2 (Wuhan …); assay: RBD beads, antibody 1 µg/mL, then labelled ACE2, flow cytometry

| Binder | IC50 of pseudovirus infection (luciferase) [1] [µg/mL] | ACE2 binding (no antibody = 100) [2] | binding amount (%) of ACE2 protein [3] [%] | fluorescence of ACE2 protein [4] | fluorescence of ACE2 protein [5] | Kd [6] [pM] | fluorescence of ACE2 protein [7] |
| --- | --- | --- | --- | --- | --- | --- | --- |
| Ab188 (antibody, V domains shown) VH: EVQLVESGGGLVQPGGSLRLSCAASGFTFINYKMNWVRQAPGKGLEWVSYISSGSDAIYYADSVKGRFTISRDNAKNSLYLQMNSLRDEDTALYYCARGGGYNYGECMDVWGQGTTVTVSS VL: not shown | 0.119 | 2.1 | 1.1 | 148 | 1570 |  |  |
| Ab336 (antibody, V domains shown) VH: QVQLQQSGPGLVKPSETLSLTCTVSGGSISSYYWTWIRQPPGKGLEWIAYISYSGSTNYNPSLRSRVTISVDTSKNQFSLKLSSVTAADTAVYYCARDYYYDNSGYPDSYYGMDVWGQGTTVTVSS VL: DIQLTQSPSTLSASVGDRVTITCRASQRISSWLAWYQQKPGKAPKLLIYKASTLQSGVPSRFSGSGSGTEFTLTISSLQPDDFATYYCQQYNSFSWTFGQGTKVEIK |  | 1 | 5.3 | 106 | 1110 | 2350 | 402 |
| Ab308 (antibody, V domains shown) VH: EVQLVQSGAEVKKPGSSVKVSCKASGGTFSSYAINWVRQAPGQGLEWMGRIIPMFGIANYAQKFQGRVTITANKSTSTAYMDLSSLRSEDTAVYYCARSQYYYDSSGYYFDYWGQGTLVTVSS VL: not shown |  | 4.1 | 3.5 | 59 | 1390 | 6620 | 432 |
| Ab354 (antibody, V domains shown) VH: QVQLVQSGAEVKKPGASVTVSCKASGFLFTGYYMHWVRQAPGQGLEWMGWINPNSGASNYTRKFQGRVTMTRDTSISATYMKLSRLTSDDTAVYYCARDLAFSMVRGALDYWGQGTLVTVSS VL: QLVLTQPPSASGSPGQSVTISCTGTSSDVGGYNYVSWYQHHPGKAPKLMIYEVSKRPSGVPDRFSGSKSGNTASLTVSGLQAEDEADYYCNSYAGNNNWVFGTGTKVTVL | 0.0559 | 0.3 | 0.3 | 42.9 | 409 | 72.6 | 64.8 |
| Ab159 (antibody, V domains shown) VH: QVQLVESGGGLVKPGGSLRLSCAASGFTFNNAWMSWVRQAPGKGLEWVGRIKSKTDGGTTDYAAPVKGRFTFSRDDSKNTLYLQMSSLKTEDTALYYCTTADYDILTGTPASPYWGQGTLVTVSS VL: DIQMTQSPSSLSASVGDRVTITCRASQSITNYLNWYQQKPGKAPKFLIYAASSLQGGVPSRFRGSGSGTDFTLTISSLQPEDFATYYCQQTYSTLWTFGQGTKVEIK | 0.00852 |  | 0.5 | 78.3 | 486 | 1240 | 114 |
| Ab496 (antibody, V domains shown) VH: EVQLVQSGPEVKKPGTSVKVSCKASGFIFTNSAVQWVRQARGQRLEWIGWIVVGSGNPNYAQKFQERVTITRDRSTSTAYMELSSLTSEDTAVYYCAAFPYYYDNSGSGPWGQGTLVTVSS VL: DIQLTQSPSSLSASVGDRVTITCQASQDIRNNLNWYQQIPGKAPKLLIYDASNLETGVPSRFSGSASGTDFTFTISSLQPEDVATYYCQQYANLPPFTFGPGTKVDIK | 0.00362 | 1.8 | 1.8 | 41.7 | 2580 |  | 129 |
| Ab326 (antibody, V domains shown) VH: EVQLVESGGGVVQPGRSLRLSCAASGFTFSHYPMHWVRQAPGRGLEWVAVISYDGSNQHYVDSVKGRFTISRDNSKNTLYLQMNSLRAEDTAVYFCASLITMIRGVPDYWGQGTLVTVSS VL: DIQMTQSPSSLSASVGDRVTITCRASQSISNYLNWYQQKPGKAPNLLIFAASSLQSGVPSRFSGSGSGTEFTLTISSLQPEDFAAYYCLQTYSTPRTFGQGTRLEIK | 0.031 | 0.2 | 0.2 | 38.4 | 516 | 51.4 | 39.9 |
| Ab287 (antibody, V domains shown) VH: QVQLVQSGAEVKKPGSSVKVSCKASGDTFSSYAISWVRQAPGQGLEWMGRIILIFGVANYAQKFQGRVTITADKSTSTAYMELSSLRSEDTAVYYCARGGFYYDSSGYHLDYWGQGTLVTVSS VL: EIVLTQSPGTLSLSPGERATLSCRPSQSVSSSYLAWYQQRPGQAPRLLIYGASSRATGIPDRFSGSGSGTDFTLTISRLEPEDFAVYYCHQYGSSPRTFGQGTKVEIK |  | 0.5 | 1.5 | 32.6 | 689 |  | 105 |
| Ab445 (antibody, V domains shown) VH: EVQLVESGGGVVQPGTSPRLSCAASGFTFSNSGMHWVRQAPGKGLEWVAVIWYDGSKKYYVDSVKGRFTISRDNSKNTLYLQMNSLRAEDTAVYYCARDGTVAVRGVMNPFFDYWGQGTLVTVSS VL: DIQLTQSPSSLSASVGDRVTITCQASQDISNYLNWYQQIPGKAPKLLIYDASNLETGVPSRFSGSGSGTDFTFTISSLQPEDIATYYCQQYDNLPYTFGQGTKLEIK |  | 0.4 | 0.4 | 142 | 2200 | 59.3 | 326 |
